Laboratory results taken from patent publication US20110293603A1 (Ablynx, published 2011).

T1: extracellular part of recombinant human SR-A1 fused to polyhistidine tag (R&D Systems Cat No 2708-MS) (human, UniProt P21757 77-451)
T1 construct: range 77-451; Bought protein; that entry was therefore not used; also called rhSRA-1
T1 sequence: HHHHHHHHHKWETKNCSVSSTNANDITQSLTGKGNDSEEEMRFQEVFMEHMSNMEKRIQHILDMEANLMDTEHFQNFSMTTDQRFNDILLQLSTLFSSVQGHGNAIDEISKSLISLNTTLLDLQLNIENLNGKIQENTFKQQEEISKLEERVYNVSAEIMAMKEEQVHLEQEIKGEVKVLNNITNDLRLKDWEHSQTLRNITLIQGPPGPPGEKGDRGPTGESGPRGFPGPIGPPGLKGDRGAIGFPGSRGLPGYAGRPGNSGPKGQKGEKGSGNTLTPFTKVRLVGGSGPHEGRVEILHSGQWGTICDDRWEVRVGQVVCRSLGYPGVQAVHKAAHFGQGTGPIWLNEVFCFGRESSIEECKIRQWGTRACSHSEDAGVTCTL


Tests used:
[1] = target: T2, extracellular part of recombinant human Lox-1 fused to polyhistidine tag (R&D Systems, cat nr. 1798-LX) (human, UniProt P78380 61-273); experiment: ELISA, rhLox-1 coated at 2 ug/ml, nanobody 1-1000 nM, detection with anti-Myc 9E10
[2] = target: T1, extracellular part of recombinant human …; experiment: ELISA, rhSRA-1 coated at 2 ug/ml, nanobody 1-1000 nM, detection with anti-Myc 9E10
[3] = target: T3, extracellular part of recombinant human RAGE fused to human Fc (R&D Systems Cat No 1145-RG) (human, UniProt Q15109 23-342); experiment: immunoprecipitation on Talon beads, SDS-PAGE and blot with mouse anti-RAGE and mouse anti-myc
T3 construct: extracellular domain; Bought protein; they look like the limits of the IgG1 Fc part; also called rhRG; 1145-RAGE; not shown: human Fc region of human IgG1, at the C-terminus
Description: In order to test the binding of anti-RAGE clones further an Immunoprecipitation experiment was performed. In short, 100 ul of Talon slurry (50 ul beads) was washed carefully with lysis buffer (RIPA without EDTA) (20 mM tris pH7.4; 150 mM NaCl; 0.5% TritonX100; 0.1% SDS). 10 ug of VHHs was added to the beads in 200 ul of lysis buffer and incubate for 30 min hoh. The beads were washed once with lysis buffer and 1 ug of rhRG was added to the beads (100 ul) and incubated for 1 hour. The beads were spinned down and supernatant was removed. The beads were washed twice. Subsequently the beads were boiled for 5 min in sample buffer and the proteins were separated on a SDS PAGE by gel electrophoresis (FIG. 1).
The high molecular weight part was detected with mouse-anti-RAGE antibody (R&D systems) and the lower part was detected with mouse anti-myc.

[4] = target: T2, extracellular part of recombinant human …; experiment: ELISA, rhLox-1 coated at 2 ug/ml, nanobody detected with anti-Myc 9E10
[5] = target: T1, extracellular part of recombinant human …; experiment: ELISA, rhSRA-1 coated at 2 ug/ml, nanobody detected with anti-Myc 9E10

T3 sequence (Q15109 23-342): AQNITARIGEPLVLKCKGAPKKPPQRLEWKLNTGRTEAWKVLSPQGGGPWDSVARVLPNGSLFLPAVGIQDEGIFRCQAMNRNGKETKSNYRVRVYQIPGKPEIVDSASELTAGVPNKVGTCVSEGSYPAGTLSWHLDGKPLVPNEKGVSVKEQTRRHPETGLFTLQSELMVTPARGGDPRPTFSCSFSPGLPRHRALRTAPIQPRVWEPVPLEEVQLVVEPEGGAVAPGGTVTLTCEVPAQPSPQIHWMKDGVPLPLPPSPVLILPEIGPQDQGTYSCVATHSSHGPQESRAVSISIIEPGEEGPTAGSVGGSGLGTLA

Row | binding result [1] | Binder | further results
1 | binds | Nanobody 98B9 (VHH, Myc-tagged (detected with anti-Myc 9E10)) VHH: EVQLVESGGGLVQAGGSLRLSCAASIGTFSAYHMGWFRQAPGKERELVAAISWSVSSTYYADSVKGRFTISRDNAKRTVSLQMDSLKPEDTAVYYCAARSGERYDYYKAQYEYWGQGTQVTVSS | 
2 | binds | Nanobody 98D8 (VHH, Myc-tagged (detected with anti-Myc 9E10)) VHH: EVQLVESGGGLVQPGGSLRLSCAASGSIFTINAMAWYRQAPGKQRELVAHLTNSGRTGYADSVKGRFTISSDNAKNTVYLQMNSLKPEDTAVYYCNRLGLHWSWGQGTQVTVSS | 

More lines, now with the values behind:

Row | Binder | binding result [1] | further results
3 | Nanobody 105B8 (VHH, Myc-tagged (detected with anti-Myc 9E10)) VHH: EVQLVESGGGLVQAGGSLRLSCAASGFTFDDYVIGWFRQAPGKEREGVSCISSSEGSTYYAESVKGRFTISSDNAKNTVYLQMNSLKPEDTAVYYCAASTWLDFVHGNEYDYRGQGTQVTVSS | binds | 
4 | Nanobody 98E9 (VHH, Myc-tagged (detected with anti-Myc 9E10)) VHH: EVQLVESGGGLVQPGGSLRLSCAAYGSFFSIGTMGWYRQPPGNQRELVAVTYGLGSTNYAESVKGRFTISRDNAKNTVSLQMNSLKPEDTAVYYCYAEIDTDPRSGEWDYWGQGTQVTVSS | binds | 
5 | Nanobody 105G11 (VHH, Myc-tagged (detected with anti-Myc 9E10)) VHH: EVQLVESGGGLVQAGGSLRLSCAASGRTFSRYAMAWFRHAPGKDREFVAAVSQSGLLTFYADSVKGRFTISRDNAKNTVYLQMNSLKPEDTAVYDCAADSRFPLVVPVAYENWGQGTQVTVSS |  | binding result [2]: binds
6 | Nanobody 98A10 (VHH, Myc-tagged (detected with anti-Myc 9E10)) VHH: EVQLVESGGGLVQPGGSLRLSCLPSTSTSSLRTVGWYRQGPGKQRDLVAIMSAGTTRYADSVKGRFTISLDDAKNTVYLQMNSLKPEDTAVYICNGRPVFSNVDYWGQGTQVTVSS | binds | 
7 | Nanobody 105A8 (VHH, Myc-tagged (detected with anti-Myc 9E10)) VHH: EVQLVESGGNLVQAGGSLRLSCAASGFTFDDYVIGWFRQAPGKEREGVSCISSVEGSTYYADSVKGRFTISGDNAKNTVYLQMNSLKPEDTAVYYCAAGTWLDCSGYGSYDMDYWGKGTLVTVSS | binds | 
8 | Nanobody 99D3 (VHH, Myc-tagged (detected with anti-Myc 9E10)) VHH: EVQLVESGGGLVQPGGSLRLSCAASGFTLGNYAIGWFRQAPGKEREGVSCVDRDGGSTYYLDSVTGRFTTSRDDAENTVYLQMNSLIPDDTAVYYCATRLYGCSGYGRDYADWGQGTQVTVSS |  | binding result [3]: no binding
9 | Nanobody 105F7 (VHH, Myc-tagged (detected with anti-Myc 9E10)) VHH: EVQLVESGGGLVQAGGSLRLSCAASGRTFSNYAMGWFRQAPGKEREFVAAITWSGSSTYYADSVKGRFTISRDNAKNTVYLQMNSLKPEDTAVYYCAAAQRGRYYYLDRNVEYDYWGQGTQVTVSS | binds | 
10 | Nanobody 98F12 (VHH, Myc-tagged (detected with anti-Myc 9E10)) VHH: EVQLVESGGGLVQAGGSLRLSCAASGFTFDDYAIGWFRQAPGKEREGVSCVSRDGGSTYYLDSVKGRFTISSDNAKNTVYLQMNSLKPEDAAVYYCAASRYDCSKYLIDYNYRGQGTQVTVSS | binds | 
11 | Nanobody 49C5 (negative control, irrelevant nanobody against alphaFcgRI) (VHH, Negative control; generation published in WO2008/074867; Myc-tagged (detected with 9E10)) VHH: EVQLVESGGGLVQAGGSLGLSCVASGRTFVSGGMGWFRQAPGKEREFVASIVWIGGRTYYADSVKGRFTISGDNAKSTVTLQMNSLKPEDTATYYCADGDLATGTYDYWGQGTQVTVSS |  | binding result [4]: no binding (tested: 1-1000 nM); binding result [5]: no binding (tested: 1-1000 nM)
12 | Nanobody 99C9 (VHH, Myc-tagged (detected with anti-Myc 9E10)) VHH: EVQLVESGGGLVQVGGSLRLSCAASGISIRTHAMGWYRQAPGKQRELVATITSVTSGGSLNYADSVKGRFTISRDNAKNTVYLQMNSLKPEDTAVYYCKLLGFDYRGQGTQVTVSS |  | binding result [2]: binds
13 | Nanobody 99C8 (VHH, Myc-tagged (detected with anti-Myc 9E10); also called 99C8 α SR-A1) VHH: EVQLVESGGGLVQPGGSLRLSCAASGSIGRFVAMGWYRQAPGKQRELVATITSITSGGRTNYADSVKGRFTISRDNAKNTVYLQMNSLKPEDTAVYYCNVVPYVNDYWGQGTQVTVSS |  | binding result [2]: binds
